Test results as given in patent US20200289608A1 (FUJITA ACADEMY, published 2020).
Where no end group is shown, it is not given here.

Target: T1, cyclic nucleotide-gated channel beta 3 (CNGB3) (human, UniProt Q9NQW8 1-809, limits assumed)
T1 construct: Endogenous protein in patient material; also called human CNGB3
T1 sequence (looked up): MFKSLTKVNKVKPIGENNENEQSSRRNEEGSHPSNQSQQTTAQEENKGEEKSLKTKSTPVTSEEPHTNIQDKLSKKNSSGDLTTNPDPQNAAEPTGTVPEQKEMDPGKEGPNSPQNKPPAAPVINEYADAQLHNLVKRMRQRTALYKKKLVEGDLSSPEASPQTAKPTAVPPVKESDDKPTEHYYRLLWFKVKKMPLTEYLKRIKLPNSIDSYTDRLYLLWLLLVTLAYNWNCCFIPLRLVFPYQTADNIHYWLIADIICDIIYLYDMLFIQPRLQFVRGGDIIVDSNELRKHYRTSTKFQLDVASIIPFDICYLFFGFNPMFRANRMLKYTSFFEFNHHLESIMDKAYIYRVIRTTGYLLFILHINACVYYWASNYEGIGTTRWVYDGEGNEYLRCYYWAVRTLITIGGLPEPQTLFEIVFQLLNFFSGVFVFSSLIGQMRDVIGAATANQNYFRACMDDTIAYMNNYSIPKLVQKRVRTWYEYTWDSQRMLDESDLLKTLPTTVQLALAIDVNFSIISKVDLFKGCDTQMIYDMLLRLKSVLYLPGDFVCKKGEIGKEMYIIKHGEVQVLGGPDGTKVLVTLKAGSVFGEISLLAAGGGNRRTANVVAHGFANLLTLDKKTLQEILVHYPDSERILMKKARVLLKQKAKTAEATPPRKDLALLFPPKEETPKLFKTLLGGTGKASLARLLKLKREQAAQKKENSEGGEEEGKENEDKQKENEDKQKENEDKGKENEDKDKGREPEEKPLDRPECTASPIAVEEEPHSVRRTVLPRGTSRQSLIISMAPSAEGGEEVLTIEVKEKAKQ
Test: avidin blotting: serum exosome proteins after SDS-PAGE on PVDF, probed with 1.0 ug/mL biotinylated Z13 peptide and HRP-avidin
Experimental: The exosome was isolated from the serum using Exosome Isolation Kit (manufactured by Fujifilm Wako Pure Chemical Industries, Ltd.) according to the manufacturer's instruction. Specifically, first, the serum was centrifuged at 1,000×g at 4° C.° for 20 minutes, and the supernatant was recovered. The collected supernatant was centrifuged at 10,000×g at 4° C. for 30 minutes, and the supernatant was transferred to a new tube. Subsequently, 1.0 mL of the supernatant was mixed with exosome capture beads with a rotator at 4° C. for 180 minutes. Subsequently, after washing the capture beads, the exosome was eluted with 100 μL of an elution buffer and stored at −20° C.
An exosome isolated from 800 μL of serum was mixed with a concentrated Laemmli buffer to prepare a measurement sample. The measurement sample was isolated by SDS-PAGE and then transferred to a PVDF membrane. The PVDF membrane was blocked in 5% BSA-containing TBST (0.1 v/v % Tween-20) at room temperature for 60 minutes. The PVDF membrane after blotting was washed and incubated overnight at 4° C.° in 1.0 μg/mL of biotinylated Z13 peptide-containing TBST. […] The CNGB3 on the membrane was detected using a CCD camera system (manufactured by ATTO) and ECL prime (manufactured by GE Healthcare). […]

B1: biotinylated Z13 peptide (peptide)
peptide: VRRADNRPG
modifications: also: biotin bound, position not given here
notes: Synthesized by GenScript; used at 1.0 ug/mL as the probe in avidin blotting, detected with HRP-avidin
Question: Does B1 bind?
Answer: Result: binds
